In US20060142189A1:

Legend:
Experiment in all cases: cell-based or functional assay
[1] = biological target: myc-L1-CAM-YH (rat (variant of rat L1-CAM)) (UniProt Q05695)
[2] = biological target: myc-L1-CAM (myc-tagged rat L1-CAM variant expressed from pMyc-L1-CAM) (rat (variant of rat L1-CAM)) (UniProt Q05695)
[3] = biological target: myc-L1-CAM-YF (rat (variant of rat L1-CAM)) (UniProt Q05695)
[4] = biological target: cell-surface L1-CAM of mouse cerebellar granular neurons (mouse) (UniProt P11627)
cell-surface L1-CAM of mouse cerebellar granular neurons (mouse), sequence (P11627 20-1260): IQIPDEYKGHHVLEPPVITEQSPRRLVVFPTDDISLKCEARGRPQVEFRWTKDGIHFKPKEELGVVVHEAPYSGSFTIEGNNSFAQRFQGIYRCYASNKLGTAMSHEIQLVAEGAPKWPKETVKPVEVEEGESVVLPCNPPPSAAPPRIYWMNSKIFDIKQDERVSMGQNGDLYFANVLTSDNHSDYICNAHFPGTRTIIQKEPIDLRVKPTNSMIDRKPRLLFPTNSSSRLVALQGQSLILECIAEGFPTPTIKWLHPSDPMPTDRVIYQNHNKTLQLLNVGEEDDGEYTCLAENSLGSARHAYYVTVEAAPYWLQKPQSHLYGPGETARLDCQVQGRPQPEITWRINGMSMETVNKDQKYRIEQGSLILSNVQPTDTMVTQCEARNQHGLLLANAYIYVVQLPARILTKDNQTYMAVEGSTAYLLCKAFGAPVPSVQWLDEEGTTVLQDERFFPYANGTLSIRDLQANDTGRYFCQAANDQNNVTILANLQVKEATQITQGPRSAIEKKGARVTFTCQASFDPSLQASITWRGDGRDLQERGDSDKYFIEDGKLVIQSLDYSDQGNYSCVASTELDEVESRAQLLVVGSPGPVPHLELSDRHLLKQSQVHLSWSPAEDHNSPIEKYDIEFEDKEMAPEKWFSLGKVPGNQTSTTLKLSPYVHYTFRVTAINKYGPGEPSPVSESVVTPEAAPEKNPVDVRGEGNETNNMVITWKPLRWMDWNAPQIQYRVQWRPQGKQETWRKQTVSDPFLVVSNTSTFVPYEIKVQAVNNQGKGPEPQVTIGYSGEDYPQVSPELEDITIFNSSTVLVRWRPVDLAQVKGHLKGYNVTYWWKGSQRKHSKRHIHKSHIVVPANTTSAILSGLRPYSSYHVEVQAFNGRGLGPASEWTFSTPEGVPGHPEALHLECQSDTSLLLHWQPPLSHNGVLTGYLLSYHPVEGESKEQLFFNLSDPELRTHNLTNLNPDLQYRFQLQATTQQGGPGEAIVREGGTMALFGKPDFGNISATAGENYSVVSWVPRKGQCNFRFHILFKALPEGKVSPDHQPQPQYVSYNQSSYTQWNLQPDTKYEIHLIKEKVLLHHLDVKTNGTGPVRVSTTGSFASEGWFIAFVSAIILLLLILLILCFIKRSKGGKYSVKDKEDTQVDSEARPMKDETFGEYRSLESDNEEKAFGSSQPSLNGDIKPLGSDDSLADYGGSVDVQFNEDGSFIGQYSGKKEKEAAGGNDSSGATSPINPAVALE

myc-L1-CAM (myc-tagged rat L1-CAM variant expressed from pMyc-L1-CAM) (rat (variant of rat L1-CAM)), sequence (Q05695 other isoform, or with tags, fused parts or gaps mutant limits assumed): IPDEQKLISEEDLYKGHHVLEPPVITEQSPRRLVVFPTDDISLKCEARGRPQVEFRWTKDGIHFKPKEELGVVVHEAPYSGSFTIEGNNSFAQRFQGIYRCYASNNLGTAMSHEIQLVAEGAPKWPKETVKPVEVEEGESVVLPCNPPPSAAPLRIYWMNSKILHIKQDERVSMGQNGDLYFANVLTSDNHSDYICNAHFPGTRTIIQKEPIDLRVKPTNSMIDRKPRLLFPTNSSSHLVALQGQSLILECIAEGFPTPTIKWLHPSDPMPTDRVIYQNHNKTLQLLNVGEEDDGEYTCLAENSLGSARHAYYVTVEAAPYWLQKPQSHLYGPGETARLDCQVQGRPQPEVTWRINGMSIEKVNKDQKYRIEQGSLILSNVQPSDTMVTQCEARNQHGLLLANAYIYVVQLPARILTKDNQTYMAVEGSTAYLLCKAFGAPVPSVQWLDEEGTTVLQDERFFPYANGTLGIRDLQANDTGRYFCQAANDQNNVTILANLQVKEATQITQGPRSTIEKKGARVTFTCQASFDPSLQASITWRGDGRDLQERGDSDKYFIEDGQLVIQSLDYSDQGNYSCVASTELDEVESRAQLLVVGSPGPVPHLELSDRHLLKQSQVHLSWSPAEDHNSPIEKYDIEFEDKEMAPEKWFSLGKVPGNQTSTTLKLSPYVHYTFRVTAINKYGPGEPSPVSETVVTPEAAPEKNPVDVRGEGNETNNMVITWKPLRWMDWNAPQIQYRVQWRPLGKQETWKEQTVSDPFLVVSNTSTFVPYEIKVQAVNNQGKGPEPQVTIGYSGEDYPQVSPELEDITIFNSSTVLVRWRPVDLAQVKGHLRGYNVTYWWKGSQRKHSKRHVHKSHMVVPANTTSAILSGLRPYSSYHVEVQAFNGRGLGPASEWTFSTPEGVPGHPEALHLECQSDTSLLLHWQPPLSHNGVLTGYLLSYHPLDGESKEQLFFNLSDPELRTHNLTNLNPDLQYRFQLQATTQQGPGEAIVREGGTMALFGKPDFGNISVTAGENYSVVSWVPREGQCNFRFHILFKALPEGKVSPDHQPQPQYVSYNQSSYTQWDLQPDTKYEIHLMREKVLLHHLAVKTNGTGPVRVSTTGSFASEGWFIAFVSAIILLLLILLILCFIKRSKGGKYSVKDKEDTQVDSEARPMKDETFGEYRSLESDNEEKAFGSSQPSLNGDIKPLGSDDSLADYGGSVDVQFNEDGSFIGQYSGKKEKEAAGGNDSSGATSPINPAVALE
myc-L1-CAM-YF (rat (variant of rat L1-CAM)), sequence (Q05695 other isoform, or with tags, fused parts or gaps mutant): as the sequence (Q05695 other isoform, or with tags, fused parts or gaps mutant limits assumed) above
myc-L1-CAM-YH (rat (variant of rat L1-CAM)), sequence (Q05695 other isoform, or with tags, fused parts or gaps mutant): as the sequence (Q05695 other isoform, or with tags, fused parts or gaps mutant limits assumed) above

Row | Substance | % of trials with retrograde movement of L1-CAM-bound beads [1] [%] | % of trials with stationary behavior of L1-CAM-bound beads [1] [%] | % of trials with retrograde movement of L1-CAM-bound beads (wild-type, untreated ND-7 cells) [2] [%] | % of trials with retrograde transport of 9E10-coated beads (wild-type L1-CAM) [2] [%] | % of trials with retrograde transport of L1-CAM-bound beads after NGF treatment (100 ng/mL, 1 hour) [2] [%] | % of trials with stationary behavior of L1-CAM-bound beads (wild-type, untreated ND-7 cells) [2] [%] | % of trials with stationary behavior of L1-CAM-bound beads after NGF treatment (100 ng/mL, 1 hour) [2] [%] | % of trials with retrograde movement of L1-CAM-bound beads [3] [%] | % of trials with stationary behavior of L1-CAM-bound beads [3] [%] | neurite extension of mouse cerebellar granular neurons on Ng-CAM after 24 h, with AP-YF peptide (30 µg/ml) [4] [µm] | neurite extension of mouse cerebellar granular neurons on Ng-CAM after 24 h, with control AP-Scramble peptide [4] [µm] | neurite extension on Ng-CAM with AP-YF above the level with control peptide [4] [%]
1 | ankyrin B (endogenous in ND-7 cells) | 92.9 | 0 | 61.9 | 68.9 | 100 | 28.6 | 18.2 | 37.5 | 62.5 |  |  | 
2 | chick Ng-CAM (chick homolog of L1-CAM) (from UniProt Q03696 21-1266) (receptor) |  |  |  |  |  |  |  |  |  | 32 | 21 | 55
